Data from the nanobody polyreactivity screen of Harvey et al. (2022).

Assay: yeast display, Sf9 membrane polyspecificity reagent, FACS + sequencing; frameworks hold sequencing errors
Outline: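 Galactose-induced (36–48 hours) yeast carrying a synthetic nanobody display library were exposed to 10% biotinylated, detergent-solubilized Sf9 membrane reagent at 4 °C for 1 hour. FACS followed streptavidin microbead enrichment, using low and high (top ~1%) gates for expression (anti-HA) and reagent binding (streptavidin). Colony PCR, MiSeq 2 × 250 sequencing and CDR-length filtering followed. Labels for polyreactivity reflect the gate of origin.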
For “QVQLVESGGGLVQAGGSLRLRCAASGFPFDSYAMGWYRQAPGKERELVAAITSDGSTYYADSVKGRFTISRDNAKNTVYVLMNSLKPEDTAVYYCAADGISLYATAYDYWGQGTQVSVSS”, the “polyreactivity (PSR sort gate)” value was “low polyreactivity”. With “QVQLVESGGGLVQAGGSLRLRCAASGFTFGRYAMGGYRQAPGKERELVAGITSGGSTYYADSVKGRFTISLDNAKNTVYLQMNSLKPEDTAVYYCITKVISRTSERRGNGFTRYDYWGQGTQVTVSS” the “polyreactivity (PSR sort gate)” value was “low polyreactivity”. In the case of “QVQLVESGGGLVQAGGSLRLRCAASGFTFTKNAIGWYRQAPGKERELVAAITRRGSSTYYADSVKGRFTISRDNAKNTVYIQMNSLKPEDTAVYYCNADYETISGDYWGQGTQVTVSS”, the “polyreactivity (PSR sort gate)” value is reported as “high polyreactivity”. In the case of “QVQLVESGGGLVQAGGSLRLRCAASGGIFGLYTMGWYRPAPGKERELVAGISKRGTRTRYADSVKGRFTISRDNAKNTVYIQMTSLKPEDTAVYYCNADYYVSKLDYWGQGTQVTVSS”, the “polyreactivity (PSR sort gate)” value is reported as “high polyreactivity”. With “QVQLVESGGGLVQAGGSLRLRCAASGGTFSGYTMGWYRQAPGKERELVAAINWSGGRTYYADSVKGRFTISRDNAKNTVYLQMNSLKPEDTAVYYCNKYGLYYREYDYWGQGTQVTVSS” the “polyreactivity (PSR sort gate)” value was “high polyreactivity”. With “QVQLVESGGGLVQAGGSLRLRCAASGITFSGNAMGWYRQAPRKERELVAAITFSGGRTYYADSVKGSFTISRDNAKNTVYLQMNSLKPEDSAVYYCAAETPRGRWLGDYWGQGTQVTVSS” the “polyreactivity (PSR sort gate)” value was “low polyreactivity”. In the case of “QVQLVESGGGLVQAGGSLRLRCAASGITFTINAMGWYRQAPGTEGELVATISINGGSTNYADSVKGRFTISRDNAKNTVYLQMNSLKPEDTAVYYCAADALGPFRFQFFYTTAYVYWGQGTQVTVSS”, the “polyreactivity (PSR sort gate)” value is reported as “low polyreactivity”. For “QVQLVESGGGLVQAGGSLRLRCAASGKTFSWYALGWYRLAPGKERELVAVITSGGSTNYADSVKWRFTISRDNAKNTVYLQMNSLKPEDTAVYYCNRRPYGFEEFDYWGQGTQVTVSS”, the “polyreactivity (PSR sort gate)” value was “low polyreactivity”. In the case of “QVQLVESGGGLVQAGGSLRLRCAASGLIFGTYAMGWYRQAPGKERELVATISQIGGSTYYADSVKGRFTISRDNAKNTVYLEMNSLKPEETAVYYCAVDGGEFSSYGYWGQGTQVTVSS”, the “polyreactivity (PSR sort gate)” value is reported as “low polyreactivity”. With “QVQLVESGGGLVQAGGSLRLRCAASGLIFPVYAMGWYRQEPGKEREFVAAITYDGGNTYYADSVKGRFTISRDNAKNTVYLQMNSLKPEDTAVYYCNRRYPGPDSFEHYYYYRYDYWGQGTQVTVSS” the “polyreactivity (PSR sort gate)” value was “low polyreactivity”. With “QVQLVESGGGLVQAGGSLRLRCAASGLTVRNYAMGWYRQAPRKERDLVAAISSGGGSTYYADSVKGRFTISRDNAKNTVYLQMNSLKPEDTAVYYCAAKRHTSLYVYYYWGQGTQVTVSS” the “polyreactivity (PSR sort gate)” value was “high polyreactivity”. For “QVQLVESGGGLVQAGGSLRLRCAASGNIFDRYAMGWYRQAPGKERELVAAISWSDGTTYYADSVKGRFTISRDNAKNTVYLQMNTLKPEDTAVYNCAGVYTYPLGYYHYTYDDWGQGTQVSVSS”, the “polyreactivity (PSR sort gate)” value was “low polyreactivity”. With “QVQLVESGGGLVQAGGSLRLRCAASGRIFDWYALGWNRQAPGQERELVAAITSGGSTYYADSVKGRFTISRDNAKNTVYLQMNSLKTEDTAVYYCAADLYYWGDSDYWGQGTQVTVSS” the “polyreactivity (PSR sort gate)” value was “low polyreactivity”. For “QVQLVESGGGLVQAGGSLRLRCAASGRIFGRYAMGWYRQAPGKERELVASISRGGSTNYADSVKGRFTISLDNAKNTVYLQMNSLKPEDTAVFYFAKSGGVGGDDRVGSWGQGTQVTVSS”, the “polyreactivity (PSR sort gate)” value was “low polyreactivity”. For “QVQLVESGGGLVQAGGSLRLRCAASGRIFSTYAMGWYRQAPGKERALVAAINKIGGSTYYADSVKGRFTISRDNAKNTVYLQMNSLKPEDTAVYYCAADAPFYPVRRYYYWGQGTQVTVSS”, the “polyreactivity (PSR sort gate)” value was “low polyreactivity”. In the case of “QVQLVESGGGLVQAGGSLRLRCAASGRIFTYYAMGWYRPAPGKERELVAAISWSGGSTYYADSVKGRFTISRDNAKNTVYLQMNSLKPEDTAVYYCNAVYPSVYPVSTRYYWGQGTQVTVSS”, the “polyreactivity (PSR sort gate)” value is reported as “high polyreactivity”. In the case of “QVQLVESGGGLVQAGGSLRLRCAASGRIFWSNAMGWYRQAPGKERELVAAISSGGSTNYADSEKGRFTISRDNAKNTVYLQMNSLKPEDTEVYYCATRGIQRGFSRWGGLDYWGQVTQVTVSS”, the “polyreactivity (PSR sort gate)” value is reported as “low polyreactivity”. With “QVQLVESGGGLVQAGGSLRLRCAASGRNFVANGKGWYRQAPGKERELVAAINDGDDTYYADSVKGRFTISRDNAQNTVYLQMNSLKPEDTEVYYCAADIIYGYEVYTYTSDYWGQGTQVTVSS” the “polyreactivity (PSR sort gate)” value was “low polyreactivity”. With “QVQLVESGGGLVQAGGSLRLRCAASGRTFDKYAMGWYRQAPGKERELVAAISYDAGRTYYADSVKGRFTISRDNAKNTVYLQMNSLKPEDNAVYFCNAVRFRGFGWGQGTQVTVSS” the “polyreactivity (PSR sort gate)” value was “high polyreactivity”. For “QVQLVESGGGLVQAGGSLRLRCAASGRTFGRYAMGWYRQAPGKERELVAAISTSGGSTFYADSVKGRITISRDNAKNTVYLLMNSLKPEDTAVYYCAADYRRFWGRYGYWGQGTQVTVSS”, the “polyreactivity (PSR sort gate)” value was “high polyreactivity”. In the case of “QVQLVESGGGLVQAGGSLRLRCAASGRTFHAYVMGWYIQAPVKERELVADISSGGDTYADSVKGRFTISRDNAKNTVYLQMNSLKPEDTAVYYCAVDLIQDESGYWGQGTQVTVSS”, the “polyreactivity (PSR sort gate)” value is reported as “low polyreactivity”. In the case of “QVQLVESGGGLVQAGGSLRLRCAASGRTFRRNAMGWYRQAPGKERELVAGISWGGGSTYYADSVKGRFTISRDNAKNTVYLQMNSLKPEDTAVYYCAASGYFYRAYGYWGQGTQVTVSS”, the “polyreactivity (PSR sort gate)” value is reported as “high polyreactivity”. In the case of “QVQLVESGGGLVQAGGSLRLRCAASGRTIASYTMGWYRQAPGKEREWVAAISKSGGSTYYADSVKGRFTNSRDNAKNTVYLQMNSLKPEDTAVYYCAKRRSGNVRKYDYWGQGTQVTVSS”, the “polyreactivity (PSR sort gate)” value is reported as “high polyreactivity”. In the case of “QVQLVESGGGLVQAGGSLRLRCAASGRTVVYYAMGWSRPAAGKETEFVATITSSGGSTYYADSVKGRFTISRDNAKNSVYLQMNSLKPEDTAVNYCAASPNIGYSKVSKYYYRGQGTQVTVSS”, the “polyreactivity (PSR sort gate)” value is reported as “high polyreactivity”. In the case of “QVQLVESGGGLVQAGGSLRLRCAASGSIFFHNAMGWYRQAPVKERELVATINRSDGTYYADSVKGRFTISRDNAKNTVYFQMNSLKPEDTAVYYCAVDHSFNDELDYWGQGTQVTVSS”, the “polyreactivity (PSR sort gate)” value is reported as “low polyreactivity”. With “QVQLVESGGGLVQAGGSLRLRCAASGSIFKGYAMGSYRQAPGKERELVAAIRGSGGSSYYADSVKGRFTISRDNAKNTVYFQLISLTPEDTAFYYCAAVAYTGGPRKLGFNYWGQATQVTVSS” the “polyreactivity (PSR sort gate)” value was “high polyreactivity”. For “QVQLVESGGGLVQAGGSLRLRCAASGSIFPLYAMGWYRQAPGKERELVAAITSSGGRTYYADSVKGRFTISRDNAKNTVYLQMNSLKPEDTAVYYCNAGYYVRRDYDYWGQGTQVTVSS”, the “polyreactivity (PSR sort gate)” value was “low polyreactivity”. For “QVQLVESGGGLVQAGGSLRLRCAASGSIFPPYAMGWYRQAPGKERELVAVISFSSGRTYYADSVKGRFTISRDNAKNTVYLQMNSQKPEDTAVYYCAADYESRNKFDYWGQGTQVTVTS”, the “polyreactivity (PSR sort gate)” value was “low polyreactivity”. With “QVQLVESGGGLVQAGGSLRLRCAASGSIFPYNAMGWYRQAPGKERELVAAISKRGRSTYYADSVKGRFTISRDNAKNTVYLHMNSLKPEDTAVYYSAARYPPYRSWYSYDYWGQGTQVTVSS” the “polyreactivity (PSR sort gate)” value was “low polyreactivity”. With “QVQLVESGGGLVQAGGSLRLRCAASGSIFRVYAMGWYRQAPGKERELVATITWNGGSTYYADSVKGRFTISRDNAKNTVYLQMNSLKPEDTAVFYCAKPSSWRRVLPIDYWGQGTQVTVSS” the “polyreactivity (PSR sort gate)” value was “low polyreactivity”. For “QVQLVESGGGLVQAGGSLRLRCAASGSIFRYNPMGWYRQAPGKERELVAPISWSGGHTYYADSVKGRFTISRDNAKNTDYLQLNSLKPEDTAVYYWATVPRKTPGNAELDYWGQGTQVTVSS”, the “polyreactivity (PSR sort gate)” value was “high polyreactivity”. With “QVQLVESGGGLVQAGGSLRLRCAASGSIFWYYTMGWYRQAPGIERELVATLTRSGSRTYDADSVKGRCTISRDNAKNTVYLQMNSLKPEDTAVYYCAKDYGPWTYDYWGQGTQVTVSS” the “polyreactivity (PSR sort gate)” value was “low polyreactivity”. In the case of “QVQLVESGGGLVQAGGSLRLRCAASGSIFYRNPMGWYRQAPGKESELVAAITSRGGRTYYADSVKGRFTISRDNAKNTVYLQMNSLKPEDTAVYYCNKRDVYSTSDYDYWGQGTQVTVSS”, the “polyreactivity (PSR sort gate)” value is reported as “high polyreactivity”. For “QVQLVESGGGLVQAGGSLRLRCAASGSISWLYSMGCYSQAPGKERELVAAISWGGGDTYYADSVKGRFTISRDNAKNTVYLQMHSLKPEDTEVFYCAADSDYYWLAYDYWGQGTQVTLSS”, the “polyreactivity (PSR sort gate)” value was “low polyreactivity”. In the case of “QVQLVESGGGLVQAGGSLRLRCAASGSTFANYAMGWYRQAPGKERELVAAISVGDGSTYYADSVKGRFTISRDNAKNTVYLQMNILKPEDTAVYYCSRVRGGYDSWGQGTQVTVSS”, the “polyreactivity (PSR sort gate)” value is reported as “high polyreactivity”. In the case of “QVQLVESGGGLVQAGGSLRLRCAASGSTFGRYAKVWYRQAPGKEREFVAAISWSGGSTYYADSVKGRFTISRDNAKNTVYLQMNSLKPEDTAVYYCARYSWRGLAEFDSWGQGTQVTVSS”, the “polyreactivity (PSR sort gate)” value is reported as “low polyreactivity”. With “QVQLVESGGGLVQAGGSLRLRCAASGSTFQTYAMGWYRQAPGKERELVAAITSGGATNYADSVKGRFTISRDNAKNTVFLQMNFLTPEVTAVYYCAVRLIDQTSDHRLQYDYWGQGTQVTVSS” the “polyreactivity (PSR sort gate)” value was “low polyreactivity”. With “QVQLVESGGGLVQAGGSLRLRCAASGSTFWGYAMGWYRQAPGKERELVASITWRGGSTYADSVKGRFTISRDNAKNTVYLQMNSLKPEDTAVYYCNALPYRYRRYDYWGQGTQVTVSS” the “polyreactivity (PSR sort gate)” value was “low polyreactivity”. In the case of “QVQLVESGGGLVQAGGSLRLRCAASGSTLYGNAMGWYRQAPGKERDLVAVISRGGTTSYADSVKGRFTISRDNAKNTVYLQMKSLKPEDTAVYYCAVDVASLSTWPPAGRLVDYWGQGTQVTVSS”, the “polyreactivity (PSR sort gate)” value is reported as “low polyreactivity”. With “QVQLVESGGGLVQAGGSLRLRCAASGYTLGPYAMGWYRPAPGKQRELVAAISWGGGRTYYADSVKGRFTISRDNAKNTVYLLMNSLKPEDTAVYYCAAKWSLVRDGPKYDYWGQGTQVTVSS” the “polyreactivity (PSR sort gate)” value was “low polyreactivity”. With “QVQLVESGGGLVQAGGSLRLRCADSGSIFHCNAMGWNRQAPGKERELVAGITTSGGTTYYADTVKGRFTISRDNAKNTVYVQMKSLKPEATAVYYCAARIIRWRPRWPSYGKYDYWGQVTQVTVSS” the “polyreactivity (PSR sort gate)” value was “low polyreactivity”. In the case of “QVQLVESGGGLVQAGGSLRLRCASSGITFRGYAMGWYRQAPGKERELVASITNTDSTYYADSVKGRFTISRDNAKNTVYLQMNSLKPEDTAVYYCAARRGRKYGYWGQGTQVTVSS”, the “polyreactivity (PSR sort gate)” value is reported as “high polyreactivity”. With “QVQLVESGGGLVQAGGSLRLRCDASGLIFYDNMGWYRQAPGKERELVAAISSSGGSTSYADSVKGRFTISRDNAKNTVYLQMNSLKPEDTAVYYCAADSYPAYLGFVGFDYWGQGTQVTVSS” the “polyreactivity (PSR sort gate)” value was “low polyreactivity”.
